{"source": "patent US20210292396A1", "assay_in_all_cases": "cell-based or functional assay", "key": {"[1]": {"molecular_target": "Env of HIV isolate 0260.v5.c36 (clade A) (HIV)"}, "[2]": {"molecular_target": "Env of HIV isolate 0330.v4.c3 (clade A) (HIV)"}, "[3]": {"molecular_target": "Env of HIV isolate 235-47 (clade AG) (HIV)"}, "[4]": {"molecular_target": "Env of HIV isolate 25925-2.22 (clade C) (HIV)"}, "[5]": {"molecular_target": "Env of HIV isolate 3589.v1.c4 (clade AC) (HIV)"}, "[6]": {"molecular_target": "Env of HIV isolate 3817.v2.c59 (clade CD) (HIV)"}, "[7]": {"molecular_target": "Env of HIV isolate 6644.v2.c33 (clade C) (HIV)"}, "[8]": {"molecular_target": "Env of HIV isolate 6785.v5.c14 (clade C) (HIV)"}, "[9]": {"molecular_target": "Env of HIV isolate A07412M1.vrc12 (clade D) (HIV)"}, "[10]": {"molecular_target": "Env of HIV isolate ADA.DG (clade B) (HIV)"}, "[11]": {"molecular_target": "Env of HIV isolate BJOX028000.10.3 (clade AE) (HIV)"}, "[12]": {"molecular_target": "Env of HIV isolate CNE3 (clade AE) (HIV)"}, "[13]": {"molecular_target": "Env of HIV isolate NKU3006.ec1 (clade D) (HIV)"}, "[14]": {"molecular_target": "Env of HIV isolate P0402.c2.11 (clade G) (HIV)"}, "[15]": {"molecular_target": "Env of HIV isolate Q259.17 (clade A) (HIV)"}, "[16]": {"molecular_target": "Env of HIV isolate Q769.h5 (clade A) (HIV)"}, "[17]": {"molecular_target": "Env of HIV isolate T251-18 (clade AG) (HIV)"}, "[18]": {"molecular_target": "Env of HIV isolate T257-31 (clade AG) (HIV)"}, "[19]": {"molecular_target": "Env of HIV isolate TH976.17 (clade AE) (HIV)"}, "[20]": {"molecular_target": "Env of HIV isolate THRO.18 (clade B) (HIV)"}, "[21]": {"molecular_target": "Env of HIV isolate TRO.11 (clade B) (HIV)"}, "[22]": {"molecular_target": "Env of HIV isolate TV1.29 (clade C) (HIV)"}, "[23]": {"molecular_target": "Env of HIV isolate UG024.2 (clade D) (HIV)"}, "[24]": {"molecular_target": "Env of SIVmac251.30.SG3"}, "[25]": {"molecular_target": "HIV Env of isolate 0077.v1.c16 (HIV)"}, "[26]": {"molecular_target": "HIV Env of isolate 00836-2.5 (HIV)"}, "[27]": {"molecular_target": "HIV Env of isolate 0260.v5.c36 (HIV)"}, "[28]": {"molecular_target": "HIV Env of isolate 263-8 (HIV)"}, "[29]": {"molecular_target": "HIV Env of isolate 3468.v1.c12 (HIV)"}, "[30]": {"molecular_target": "HIV Env of isolate 3589.v1.c4 (HIV)"}, "[31]": {"molecular_target": "HIV Env of isolate 6545.v4.c1 (HIV)"}, "[32]": {"molecular_target": "HIV Env of isolate Bal.01 (HIV)"}, "[33]": {"molecular_target": "HIV Env of isolate C3347.c11 (HIV)"}, "[34]": {"molecular_target": "HIV Env of isolate CNE14 (HIV)"}, "[35]": {"molecular_target": "HIV Env of isolate CNE15 (HIV)"}, "[36]": {"molecular_target": "HIV Env of isolate CNE7 (HIV)"}, "[37]": {"molecular_target": "HIV Env of isolate DU151.02 (HIV)"}, "[38]": {"molecular_target": "HIV Env of isolate DU422.01 (HIV)"}, "[39]": {"molecular_target": "HIV Env of isolate KER2008.12 (HIV)"}, "[40]": {"molecular_target": "HIV Env of isolate MN.3 (HIV)"}, "[41]": {"molecular_target": "HIV Env of isolate P0402.c2.11 (HIV)"}, "[42]": {"molecular_target": "HIV Env of isolate Q168.a2 (HIV)"}, "[43]": {"molecular_target": "HIV Env of isolate Q259.17 (HIV)"}, "[44]": {"molecular_target": "HIV Env of isolate QH209.14M.A2 (HIV)"}, "[45]": {"molecular_target": "HIV Env of isolate R3265.c6 (HIV)"}, "[46]": {"molecular_target": "HIV Env of isolate REJO.67 (HIV)"}, "[47]": {"molecular_target": "HIV Env of isolate RHPA.7 (HIV)"}, "[48]": {"molecular_target": "HIV Env of isolate TH966.8 (HIV)"}, "[49]": {"molecular_target": "HIV Env of isolate TRJO.58 (HIV)"}, "[50]": {"molecular_target": "HIV Env of isolate TZA125.17 (HIV)"}, "[51]": {"molecular_target": "HIV Env of isolate UG024.2 (HIV)"}, "[52]": {"molecular_target": "HIV Env of isolate X1632.S2.B10 (HIV)"}, "[53]": {"molecular_target": "HIV Env of isolate X2131.C1.B5 (HIV)"}}}
{"substance": "PGT121 (antibody)", "values": [{"measurement": "IC50, pseudovirus neutralization", "setting": "[1]", "value": 0.0587, "unit": "µg/mL"}, {"measurement": "IC50, pseudovirus neutralization", "setting": "[2]", "value": 0.0597, "unit": "µg/mL"}, {"measurement": "IC50, pseudovirus neutralization", "setting": "[3]", "value": 0.132, "unit": "µg/mL"}, {"measurement": "IC50, pseudovirus neutralization", "setting": "[4]", "value": 0.045, "unit": "µg/mL"}, {"measurement": "IC50, pseudovirus neutralization", "setting": "[5]", "value": "> 50", "unit": "µg/mL"}, {"measurement": "IC50, pseudovirus neutralization", "setting": "[6]", "value": 22.2, "unit": "µg/mL"}, {"measurement": "IC50, pseudovirus neutralization", "setting": "[7]", "value": 0.037, "unit": "µg/mL"}, {"measurement": "IC50, pseudovirus neutralization", "setting": "[8]", "value": 0.0503, "unit": "µg/mL"}, {"measurement": "IC50, pseudovirus neutralization", "setting": "[9]", "value": 0.042, "unit": "µg/mL"}, {"measurement": "IC50, pseudovirus neutralization", "setting": "[10]", "value": 0.0333, "unit": "µg/mL"}, {"measurement": "IC50, pseudovirus neutralization", "setting": "[11]", "value": "> 50", "unit": "µg/mL"}, {"measurement": "IC50, pseudovirus neutralization", "setting": "[12]", "value": "> 50", "unit": "µg/mL"}, {"measurement": "IC50, pseudovirus neutralization", "setting": "[13]", "value": "> 50", "unit": "µg/mL"}, {"measurement": "IC50, pseudovirus neutralization", "setting": "[14]", "value": 0.0123, "unit": "µg/mL"}, {"measurement": "IC50, pseudovirus neutralization", "setting": "[15]", "value": "> 50", "unit": "µg/mL"}, {"measurement": "IC50, pseudovirus neutralization", "setting": "[16]", "value": "> 50", "unit": "µg/mL"}, {"measurement": "IC50, pseudovirus neutralization", "setting": "[17]", "value": 3.05, "unit": "µg/mL"}, {"measurement": "IC50, pseudovirus neutralization", "setting": "[18]", "value": "> 50", "unit": "µg/mL"}, {"measurement": "IC50, pseudovirus neutralization", "setting": "[19]", "value": "> 50", "unit": "µg/mL"}, {"measurement": "IC50, pseudovirus neutralization", "setting": "[20]", "value": "> 50", "unit": "µg/mL"}, {"measurement": "IC50, pseudovirus neutralization", "setting": "[21]", "value": 0.0203, "unit": "µg/mL"}, {"measurement": "IC50, pseudovirus neutralization", "setting": "[22]", "value": 0.146, "unit": "µg/mL"}, {"measurement": "IC50, pseudovirus neutralization", "setting": "[23]", "value": "> 50", "unit": "µg/mL"}, {"measurement": "IC80, pseudovirus neutralization", "setting": "[24]", "value": "> 50", "unit": "µg/mL"}, {"measurement": "IC80, pseudovirus neutralization", "setting": "[25]", "value": "> 50", "unit": "µg/mL"}, {"measurement": "IC80, pseudovirus neutralization", "setting": "[26]", "value": "> 50", "unit": "µg/mL"}, {"measurement": "IC80", "setting": "[27]", "value": 0.159, "unit": "µg/mL"}, {"measurement": "IC80", "setting": "[28]", "value": 2.5, "unit": "µg/mL"}, {"measurement": "IC80", "setting": "[29]", "value": 0.413, "unit": "µg/mL"}, {"measurement": "IC80", "setting": "[30]", "value": "> 50", "unit": "µg/mL"}, {"measurement": "IC80", "setting": "[31]", "value": "> 50", "unit": "µg/mL"}, {"measurement": "IC80", "setting": "[32]", "value": 0.0277, "unit": "µg/mL"}, {"measurement": "IC80", "setting": "[33]", "value": "> 50", "unit": "µg/mL"}, {"measurement": "IC80", "setting": "[34]", "value": 0.0243, "unit": "µg/mL"}, {"measurement": "IC80, pseudovirus neutralization", "setting": "[35]", "value": "> 50", "unit": "µg/mL"}, {"measurement": "IC80, pseudovirus neutralization", "setting": "[36]", "value": 0.121, "unit": "µg/mL"}, {"measurement": "IC80, pseudovirus neutralization", "setting": "[37]", "value": 0.0283, "unit": "µg/mL"}, {"measurement": "IC80, pseudovirus neutralization", "setting": "[38]", "value": 0.176, "unit": "µg/mL"}, {"measurement": "IC80", "setting": "[39]", "value": 6.55, "unit": "µg/mL"}, {"measurement": "IC80", "setting": "[40]", "value": "> 50", "unit": "µg/mL"}, {"measurement": "IC80, pseudovirus neutralization", "setting": "[41]", "value": 0.0297, "unit": "µg/mL"}, {"measurement": "IC80", "setting": "[42]", "value": "> 50", "unit": "µg/mL"}, {"measurement": "IC80", "setting": "[43]", "value": "> 50", "unit": "µg/mL"}, {"measurement": "IC80", "setting": "[44]", "value": "> 50", "unit": "µg/mL"}, {"measurement": "IC80", "setting": "[45]", "value": "> 50", "unit": "µg/mL"}, {"measurement": "IC80", "setting": "[46]", "value": "> 50", "unit": "µg/mL"}, {"measurement": "IC80", "setting": "[47]", "value": 0.093, "unit": "µg/mL"}, {"measurement": "IC80", "setting": "[48]", "value": "> 50", "unit": "µg/mL"}, {"measurement": "IC80", "setting": "[49]", "value": 18.6, "unit": "µg/mL"}, {"measurement": "IC80, pseudovirus neutralization", "setting": "[50]", "value": 9.43, "unit": "µg/mL"}, {"measurement": "IC80, pseudovirus neutralization", "setting": "[51]", "value": "> 50", "unit": "µg/mL"}, {"measurement": "IC80, pseudovirus neutralization", "setting": "[52]", "value": "> 50", "unit": "µg/mL"}, {"measurement": "IC80, pseudovirus neutralization", "setting": "[53]", "value": 0.036, "unit": "µg/mL"}]}
